Results published in patent US20110195022A1 (IMMUNOGEN, published 2011).
Positions count from the first letter of the chain named. Values joined by “and” are separate entries in the source; they are usually repeats but may differ in a detail not shown here. Equal entries are not always repeated. Where two headings read alike, the source gives them in different places.

Experiments:
[1] = molecular target: T1, CD20-A170S P172S variant (human, UniProt P11836 1-297); assay: flow cytometry, 300-19 cells transfected with CD20-A170S P172S, MFI against antibody concentration
T1 construct: whole, on cells; also called CD20-AP; CD20AP
T1 sequence (looked up): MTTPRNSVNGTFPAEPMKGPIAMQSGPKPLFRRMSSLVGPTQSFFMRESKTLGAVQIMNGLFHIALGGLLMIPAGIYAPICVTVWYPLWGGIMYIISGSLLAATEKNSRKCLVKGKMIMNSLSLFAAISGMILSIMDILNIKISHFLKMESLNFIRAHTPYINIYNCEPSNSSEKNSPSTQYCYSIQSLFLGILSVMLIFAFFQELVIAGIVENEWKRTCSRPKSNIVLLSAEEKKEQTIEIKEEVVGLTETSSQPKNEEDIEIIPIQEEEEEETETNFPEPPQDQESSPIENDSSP

[2] = molecular target: T1, CD20-A170S P172S variant; assay: as above; remark: listed apart in the source
[3] = molecular target: T2, human CD20 (human, UniProt P11836 1-297); assay: cell-based or functional assay
T2 sequence (looked up): T1 sequence (looked up) with S170A, S172P

[4] = molecular target: T2, human CD20; assay: flow cytometry titration on BJAB cells, apparent Kd from the dose-response curve
Procedure: (§1) Data analysis was performed using CellQuest Pro (BD Biosciences, San Diego, US) and for each sample the mean fluorescence intensity for FL1 (MFI) was exported and plotted against the antibody concentration in a semi-log plot.
The value for the apparent dissociation constant (Kd) of each antibody was calculated using GraphPad Prism v4 (GraphPad software, San Diego, Calif.).

[5] = molecular target: T2, human CD20; assay: flow cytometry, 300-19 cells transfected with wild type human CD20, MFI against antibody concentration
[6] = molecular target: T2, human CD20; assay: flow cytometry titration on BJAB cells, apparent Kd from the binding curve
Procedure: as §1

[7] = molecular target: T2, human CD20; assay: flow cytometry, BJAB cells, MFI against antibody concentration
Procedure: as §1

[8] = molecular target: T2, human CD20; assay: cell-based or functional assay; remark: listed apart in the source

B1: 2F2 (antibody, V domains shown)
VH: EVQLVESGGGLVQPGRSLRLSCAASGFTFNDYAMHWVRQAPGKGLEWVSTISWNSGSIGYADSVKGRFTISRDNAKKSLYLQMNSLRAEDTALYYCAKDIQYGNYYYGMDVWGQGTTVTVSS
VL: EIVLTQSPATLSLSPGERATLSCRASQSVSSYLAWYQQKPGQAPRLLIYDASNRATGIPARFSGSGSGTDFTLTISSLEPEDFAVYYCQQRSNWPITFGQGTRLEIK
How did the “EC50 (read off the curve)” value [1] turn out when B1 was run?
Its value is ~4 nM.

What about the “EC50 (read off the curve)” value [2] of the same binder?
Its value is ~2 nM.

B2: rituximab (antibody, V domains shown)
VH: QVQLQQPGAELVKPGASVKMSCKASGYTFTSYNMHWVKQTPGRGLEWIGAIYPGNGDTSYNQKFKGKATLTADKSSSTAYMQLSSLTSEDSAVYYCARSTYYGGDWYFNVWGAGTTVTVSA
VL: QIVLSQSPAILSASPGEKVTMTCRASSSVSYIHWFQQKPGSSPKPWIYATSNLASGVPVRFSGSGSGTSYSLTISRVEAEDAATYYCQQWTSNPPTFGGGTKLEIK
Which results are given for B2?
EC50 of ADCC, DOHH-2 cells, human NK cells, LDH release [3]: 1.08 ng/mL; EC50 of ADCC, Granta-519 cells, human NK cells, LDH release [3]: 1.23 ng/mL; EC50 of ADCC, JVM-13 cells, human NK cells, LDH release [3]: 0.29 ng/mL; EC50 of ADCC, Ramos cells, human NK cells, LDH release [3]: 3.5 ng/mL; EC50 of ADCC, SU-DHL-4 cells, human NK cells, LDH release [3]: 0.53 ng/mL; EC50 of CDC, Daudi cells, 5% human complement [3]: 0.3 µg/mL; EC50 of CDC, Raji cells, 5% human complement [3]: 0.11 µg/mL; EC50 of CDC, Ramos cells, 5% human complement [3]: 0.06 µg/mL; EC50 of CDC, SU-DHL-4 cells, 5% human complement [3]: 0.31 µg/mL; EC50 of CDC, WSU-DLCL-2 cells, 5% human complement [3]: 0.35 µg/mL and 0.19 µg/mL

B3: chCD20-20 (antibody, V domains shown)
VH: QVQLQQSGAELARPGASVKLSCKASGYTFTSYWMHWVKQRPGQGLEWIGAIYPGDGDTRYTQKFKGKATLTADKSSYTAYMQLSSLASEDSAVYYCARSPDFYGSGYDFDYWGQGTTLTVSS
VL: DIKMTQSPSSMYTSLGERVTITCKASQDINSFLSWFQQKPGKSPKTLIYRAYRLVDGVPSRFSGSGSGQDYSLTISSLEFEDMGIYYCLQSGAFPLTFGAGTKLELKR
notes: Chimeric antibody: murine CD20-20 variable regions with human constant regions (equivalent plasmids to chCD20-4), expressed in HEK-293T; the murine VL/VH entries 7 and 8 are used; also called chimeric CD20-20
For B3, which Kd [4] is on record?
Its Kd is 0.42 nM.

What about the “EC50 of CDC, WSU-DLCL-2 cells, 5% human complement” value [3] of the same binder?
The value was 0.084 µg/mL.

What about the “EC50 (read off the curve)” value [5] of the same binder?
The value was ~700 pM.

B4: muCD20-20 (antibody, mouse IgG1, kappa, V domains shown)
VH: B3 VH
VL: B3 VL
notes: Murine monoclonal antibody purified from hybridoma supernatant; also called murine CD20-20
Which Kd [4] does the source give for B4 here?
Its Kd is 0.59 nM.

B5: chCD20-4 (antibody, V domains shown)
VH: EVKVEESGGGLVKTGGSMKLSCVASGFSFNNYWMNWVRQSPEKGLEWVAEIRLKSNNYATHYVESVKGRFTISRDDSKSSVYLQMNNLRAEDTGIYYCTGWDDYAMDHWGQGISVTVSS
VL: DIVMTQSQKFMSTSVGDRVSVNCKASQNVGTNVAWYQQKPRQSPKGLIYSASFRYSGVPDRFTGSGSGTDFTLTIFNVQSDDLAEYFCQQYNNYPLTFGGGTKLEIKR
notes: Chimeric antibody: murine CD20-4 variable regions cloned in frame with human constant regions (plasmids pchCD20-4HCN and pchCD20-4LCZ), expressed in HEK-293T; the murine VL/VH entries 5 and 6 are used; a huIgG1 isotype control was used beside it; also called chimeric CD20-4
B5 was tested. Which Kd [4] did it give?
Its Kd is 0.47 nM.

What about the “EC50 of CDC, WSU-DLCL-2 cells, 5% human complement” value [3] of the same binder?
Its value is 0.027 µg/mL.

B6: huCD20-4-SPP-DM1 (antibody, human IgG1, kappa, V domains shown)
VH: B5 VH with K3Q, K13Q, T14P, K19R, E42G, E64D
VL: B5 VL with V3Q, Q8P, K9S, F10T, R41G, Q42K, D60S, S80P
modifications: DM1 linked through SPP (disulfide), 3.5-4 DM1 molecules per antibody; sites not stated
B6 was tested. Which “EC50 of in vitro cytotoxicity (WST-8), Daudi cells” value (shortened to “EC50 … (WST-8), Daudi cells”) [3] did it give?
The value was 0.4 nM.

What about the “EC50 of in vitro cytotoxicity (WST-8), Ramos cells” value (shortened to “EC50 … (WST-8), Ramos cells”) [3] of the same binder?
The value was 0.35 nM.

What about the Kd [6] of the same binder?
Its Kd is 1.5 nM.

B7: huCD20-4 (antibody, human IgG1, kappa, V domains shown)
VH: B5 VH with K3Q, K13Q, T14P, K19R, E42G, E64D
VL: B5 VL with V3Q, Q8P, K9S, F10T, R41G, Q42K, D60S, S80P
notes: Resurfaced antibody expressed in HEK-293T cells; also called humanized CD20-4; resurfaced CD20-4
Does B7 bind [2]?
Result: no binding (tested: 1e-7 M)

What about the Kd [4] of the same binder?
Its Kd is 0.46 nM.

And the “EC50 of ADCC, DOHH-2 cells, human NK cells, LDH release” value [3]?
Its value is 0.57 ng/mL.

What about the “EC50 of ADCC, Granta-519 cells, human NK cells, LDH release” value [3] of the same binder?
Its value is 0.28 ng/mL and 0.29 ng/mL.

What about the “EC50 of ADCC, JVM-13 cells, human NK cells, LDH release” value [3] of the same binder?
Its value is 0.097 ng/mL.

And the “EC50 of ADCC, Ramos cells, human NK cells, LDH release” value [3]?
The value was 0.4 ng/mL.

What about the “EC50 of ADCC, SU-DHL-4 cells, human NK cells, LDH release” value [3] of the same binder?
Its value is 0.2 ng/mL.

What about the “EC50 of ADCC, WSU-DLCL-2 cells, human NK cells, LDH release” value [3] of the same binder?
Its value is 0.4 ng/mL.

And the “EC50 of CDC, Daudi cells, 5% human complement” value [3]?
Its value is 0.05 µg/mL and ~0.05 µg/mL.

What about the “EC50 of CDC, Raji cells, 5% human complement” value [3] of the same binder?
The value was 0.032 µg/mL.

And the “EC50 of CDC, Ramos cells, 5% human complement” value [3]?
The value was 0.01 µg/mL.

And the “EC50 of CDC, SU-DHL-4 cells, 5% human complement” value [3]?
Its value is 0.03 µg/mL.

And the “EC50 of CDC, WSU-DLCL-2 cells, 5% human complement” value [3]?
The value was ~0.04 µg/mL.

And the “EC50 (read off the curve)” value [7]?
The value was ~600 pM.

And the “EC50 (read off the curve)” value [5]?
The value was ~1000 pM.

What about the Kd [6] of the same binder?
The Kd was 1 nM.

B8: huCD20-4-SMCC-DM1 (antibody, human IgG1, kappa, V domains shown)
VH: B5 VH with K3Q, K13Q, T14P, K19R, E42G, E64D
VL: B5 VL with V3Q, Q8P, K9S, F10T, R41G, Q42K, D60S, S80P
modifications: DM1 linked through SMCC (thioether), 3.5-4 DM1 molecules per antibody; sites not stated
notes: also called huCD20-4-MCC-DM1
How did the “EC50 of ADCC, Granta-519 cells, human NK cells, LDH release” value [3] turn out when B8 was run?
The value was 0.28 ng/mL.

What about the “EC50 of ADCC, SU-DHL-4 cells, human NK cells, LDH release” value [3] of the same binder?
The value was 0.27 ng/mL.

What about the “EC50 of CDC, Daudi cells, 5% human complement” value [3] of the same binder?
The value was ~0.08 µg/mL.

What about the “EC50 of CDC, WSU-DLCL-2 cells, 5% human complement” value [3] of the same binder?
The value was ~0.04 µg/mL.

And the “EC50 … (WST-8), Daudi cells” value [3]?
The value was 0.21 nM.

What about the “EC50 … (WST-8), Ramos cells” value [3] of the same binder?
Its value is 0.22 nM and 0.35 nM.

What about the Kd [6] of the same binder?
The Kd was 0.9 nM.

What about the “EC50 of in vitro cytotoxicity (WST-8), DOHH-2 cells” value [8] of the same binder?
The value was 0.11 nM.

And the “EC50 … (WST-8), Daudi cells” value [8]?
Its value is 0.29 nM.

What about the “EC50 of in vitro cytotoxicity (WST-8), Granta-519 cells” value [8] of the same binder?
Its value is 0.03 nM.

What about the “EC50 … (WST-8), Ramos cells” value [8] of the same binder?
The value was 0.54 nM.

What about the “EC50 of in vitro cytotoxicity (WST-8), SC-1 cells” value [8] of the same binder?
The value was 0.6 nM.

B9: muCD20-4 (antibody, mouse IgG2a, kappa, V domains shown)
VH: B5 VH
VL: B5 VL
notes: Murine monoclonal antibody purified from hybridoma supernatant (ATCC PTA-10485 or PTA-10561); also called murine CD20-4
How did the Kd [4] turn out when B9 was run?
Its Kd is 0.97 nM.

B10: huCD20-4-SPDB-DM4 (antibody, human IgG1, kappa, V domains shown)
VH: B5 VH with K3Q, K13Q, T14P, K19R, E42G, E64D
VL: B5 VL with V3Q, Q8P, K9S, F10T, R41G, Q42K, D60S, S80P
modifications: DM4 linked through SPDB (disulfide), 3.5-4 DM4 molecules per antibody; sites not stated
For B10, which “EC50 of CDC, WSU-DLCL-2 cells, 5% human complement” value [3] is on record?
The value was ~0.04 µg/mL.

And the “EC50 … (WST-8), Daudi cells” value [3]?
The value was 0.19 nM.

And the “EC50 … (WST-8), Ramos cells” value [3]?
The value was 0.39 nM.
